Reference: patent publication US20150064134A1

Experiments:
Assay in all cases: cell-based or functional assay
[1] = target: cKit(h) (human) (UniProt P10721)
[2] = target: PTK5(h) (human) (UniProt P42685)
[3] = target: DYRK2(h) (human) (UniProt Q92630)
[4] = target: WNK2(h) (human) (UniProt Q9Y3S1)
[5] = target: ErbB4(h) (human) (UniProt Q15303)
[6] = target: Syk(h) (human) (UniProt P43405)
[7] = target: AMPKα1(h) (human) (UniProt Q13131)
[8] = target: Met(Y1248C)(h) (human) (UniProt P08581)
[9] = target: T1, PrKX(h) (human) (UniProt P51817)
T1 sequence (looked up): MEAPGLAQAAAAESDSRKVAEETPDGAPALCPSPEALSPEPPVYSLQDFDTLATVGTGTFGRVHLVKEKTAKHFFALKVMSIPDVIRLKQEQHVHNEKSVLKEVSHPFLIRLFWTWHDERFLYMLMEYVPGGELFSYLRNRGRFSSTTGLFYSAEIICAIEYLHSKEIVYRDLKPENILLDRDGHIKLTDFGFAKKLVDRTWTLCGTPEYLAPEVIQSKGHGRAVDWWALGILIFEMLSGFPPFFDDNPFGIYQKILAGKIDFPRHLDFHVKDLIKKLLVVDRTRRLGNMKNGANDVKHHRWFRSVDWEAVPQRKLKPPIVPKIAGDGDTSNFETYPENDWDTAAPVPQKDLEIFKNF

[10] = target: CDK6/cyclinD3(h) (human) (UniProt Q00534)
Sequence of CDK6/cyclinD3(h) (human) (Q00534 whole entry, chain 1 of 2): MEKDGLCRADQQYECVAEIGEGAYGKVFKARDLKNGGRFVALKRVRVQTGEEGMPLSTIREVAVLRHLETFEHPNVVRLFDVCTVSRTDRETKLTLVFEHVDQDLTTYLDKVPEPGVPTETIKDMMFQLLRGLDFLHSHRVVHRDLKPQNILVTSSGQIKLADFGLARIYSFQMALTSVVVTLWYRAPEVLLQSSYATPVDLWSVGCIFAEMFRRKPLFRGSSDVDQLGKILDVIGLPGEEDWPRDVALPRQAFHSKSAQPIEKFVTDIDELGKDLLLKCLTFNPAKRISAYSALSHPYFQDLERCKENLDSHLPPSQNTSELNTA
Sequence of CDK6/cyclinD3(h) (human) (P30281 whole entry, chain 2 of 2, further chain): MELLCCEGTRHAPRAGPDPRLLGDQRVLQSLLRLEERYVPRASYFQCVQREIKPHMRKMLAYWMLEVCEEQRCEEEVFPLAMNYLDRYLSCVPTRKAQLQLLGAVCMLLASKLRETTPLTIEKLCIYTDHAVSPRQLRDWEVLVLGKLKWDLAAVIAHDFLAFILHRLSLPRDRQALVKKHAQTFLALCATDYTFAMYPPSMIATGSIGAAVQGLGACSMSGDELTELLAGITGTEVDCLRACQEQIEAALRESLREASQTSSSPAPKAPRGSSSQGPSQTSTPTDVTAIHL

[11] = target: T2, Haspin(h) (human) (UniProt Q8TF76)
T2 sequence (looked up): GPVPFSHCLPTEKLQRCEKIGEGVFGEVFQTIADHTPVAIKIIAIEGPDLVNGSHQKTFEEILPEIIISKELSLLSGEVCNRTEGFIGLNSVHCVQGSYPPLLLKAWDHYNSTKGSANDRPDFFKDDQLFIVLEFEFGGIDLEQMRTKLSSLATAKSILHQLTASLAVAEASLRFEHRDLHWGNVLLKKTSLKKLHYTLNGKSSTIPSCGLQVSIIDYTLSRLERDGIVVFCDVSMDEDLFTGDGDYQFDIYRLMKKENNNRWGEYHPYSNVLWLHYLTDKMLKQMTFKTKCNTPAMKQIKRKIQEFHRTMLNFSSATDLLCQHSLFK

[12] = target: p70S6K(h) (human) (UniProt P23443)
[13] = target: T3, ULK2(h) (human) (UniProt Q8IYT8)
T3 sequence (looked up): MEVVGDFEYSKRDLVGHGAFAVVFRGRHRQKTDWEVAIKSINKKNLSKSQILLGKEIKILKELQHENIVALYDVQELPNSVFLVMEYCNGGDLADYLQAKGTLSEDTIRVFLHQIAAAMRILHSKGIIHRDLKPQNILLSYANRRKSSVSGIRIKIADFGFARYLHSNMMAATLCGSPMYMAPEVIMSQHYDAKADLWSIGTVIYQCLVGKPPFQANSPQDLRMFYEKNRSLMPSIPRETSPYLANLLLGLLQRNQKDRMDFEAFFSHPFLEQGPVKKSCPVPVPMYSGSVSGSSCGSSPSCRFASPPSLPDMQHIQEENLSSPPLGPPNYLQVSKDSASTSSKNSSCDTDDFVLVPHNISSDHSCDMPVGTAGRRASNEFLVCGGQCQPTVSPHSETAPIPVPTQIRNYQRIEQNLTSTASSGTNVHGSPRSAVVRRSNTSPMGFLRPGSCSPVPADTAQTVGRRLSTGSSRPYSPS

[14] = target: T4, EphA8(h) (human) (UniProt P29322)
T4 sequence (looked up): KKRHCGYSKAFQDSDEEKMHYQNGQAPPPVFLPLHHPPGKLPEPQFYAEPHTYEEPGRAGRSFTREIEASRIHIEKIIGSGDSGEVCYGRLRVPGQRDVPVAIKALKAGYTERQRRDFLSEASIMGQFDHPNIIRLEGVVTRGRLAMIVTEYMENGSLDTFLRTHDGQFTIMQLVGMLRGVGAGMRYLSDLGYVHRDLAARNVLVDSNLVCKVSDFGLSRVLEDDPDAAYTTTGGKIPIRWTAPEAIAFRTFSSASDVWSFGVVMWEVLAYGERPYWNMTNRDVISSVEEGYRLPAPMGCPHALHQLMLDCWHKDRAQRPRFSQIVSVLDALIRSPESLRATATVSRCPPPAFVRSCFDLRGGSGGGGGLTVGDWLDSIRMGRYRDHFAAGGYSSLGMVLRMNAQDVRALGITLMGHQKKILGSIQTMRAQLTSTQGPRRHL

[15] = target: BTK(R28H)(h) (human) (UniProt Q06187)
[16] = target: STK33(h) (human) (UniProt Q9BYT3)
[17] = target: Rsk3(h) (human) (UniProt Q15349)
Sequence of Rsk3(h) (human) (Q15349 whole entry): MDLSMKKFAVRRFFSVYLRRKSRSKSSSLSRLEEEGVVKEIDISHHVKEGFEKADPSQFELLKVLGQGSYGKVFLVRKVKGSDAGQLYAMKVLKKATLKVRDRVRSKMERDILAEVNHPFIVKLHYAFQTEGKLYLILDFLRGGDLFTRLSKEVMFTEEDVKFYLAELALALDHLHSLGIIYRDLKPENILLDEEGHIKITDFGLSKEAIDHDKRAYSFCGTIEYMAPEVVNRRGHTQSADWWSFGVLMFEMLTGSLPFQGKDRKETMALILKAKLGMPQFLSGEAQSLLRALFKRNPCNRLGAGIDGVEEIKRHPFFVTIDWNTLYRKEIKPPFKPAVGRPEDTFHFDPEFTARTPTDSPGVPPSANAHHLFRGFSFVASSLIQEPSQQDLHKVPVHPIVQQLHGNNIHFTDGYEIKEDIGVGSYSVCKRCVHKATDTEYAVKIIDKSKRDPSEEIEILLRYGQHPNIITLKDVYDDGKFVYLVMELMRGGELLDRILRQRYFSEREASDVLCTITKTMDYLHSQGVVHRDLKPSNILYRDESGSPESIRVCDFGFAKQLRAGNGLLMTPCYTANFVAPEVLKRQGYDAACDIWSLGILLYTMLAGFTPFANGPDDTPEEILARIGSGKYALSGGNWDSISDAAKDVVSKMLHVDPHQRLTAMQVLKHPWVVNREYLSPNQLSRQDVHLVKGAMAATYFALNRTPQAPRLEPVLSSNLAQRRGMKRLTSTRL

[18] = target: MSSK1(h) (human) (UniProt Q9UPE1)
[19] = target: ALK(h) (human) (UniProt Q9UM73)
[20] = target: IR(h) (human) (UniProt P06213)
Sequence of IR(h) (human) (P06213 1005-1310 limits assumed): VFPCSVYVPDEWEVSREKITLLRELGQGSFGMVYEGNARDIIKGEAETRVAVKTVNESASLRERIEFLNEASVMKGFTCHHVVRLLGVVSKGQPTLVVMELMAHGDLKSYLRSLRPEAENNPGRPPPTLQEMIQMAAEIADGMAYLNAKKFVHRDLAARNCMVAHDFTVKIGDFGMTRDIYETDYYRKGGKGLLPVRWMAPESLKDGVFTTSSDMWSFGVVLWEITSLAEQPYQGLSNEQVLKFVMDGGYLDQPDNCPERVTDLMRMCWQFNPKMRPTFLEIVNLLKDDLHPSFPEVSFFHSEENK

[21] = target: NEK6(h) (human) (UniProt Q9HC98)
[22] = target: T5, SAPK4(h) (human) (UniProt O15264)
T5 sequence (looked up): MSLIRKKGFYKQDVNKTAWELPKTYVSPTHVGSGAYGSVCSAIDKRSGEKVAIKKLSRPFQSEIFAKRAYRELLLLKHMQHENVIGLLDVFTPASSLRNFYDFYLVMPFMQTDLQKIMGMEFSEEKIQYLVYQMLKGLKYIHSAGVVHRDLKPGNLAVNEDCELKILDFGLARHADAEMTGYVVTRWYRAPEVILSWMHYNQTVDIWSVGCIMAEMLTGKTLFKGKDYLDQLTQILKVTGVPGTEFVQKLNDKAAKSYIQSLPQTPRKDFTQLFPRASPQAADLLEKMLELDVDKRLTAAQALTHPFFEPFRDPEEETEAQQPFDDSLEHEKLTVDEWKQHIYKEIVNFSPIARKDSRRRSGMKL

[23] = target: MSK2(h) (human) (UniProt O75676)

Sequence of cKit(h) (human) (P10721 544-976): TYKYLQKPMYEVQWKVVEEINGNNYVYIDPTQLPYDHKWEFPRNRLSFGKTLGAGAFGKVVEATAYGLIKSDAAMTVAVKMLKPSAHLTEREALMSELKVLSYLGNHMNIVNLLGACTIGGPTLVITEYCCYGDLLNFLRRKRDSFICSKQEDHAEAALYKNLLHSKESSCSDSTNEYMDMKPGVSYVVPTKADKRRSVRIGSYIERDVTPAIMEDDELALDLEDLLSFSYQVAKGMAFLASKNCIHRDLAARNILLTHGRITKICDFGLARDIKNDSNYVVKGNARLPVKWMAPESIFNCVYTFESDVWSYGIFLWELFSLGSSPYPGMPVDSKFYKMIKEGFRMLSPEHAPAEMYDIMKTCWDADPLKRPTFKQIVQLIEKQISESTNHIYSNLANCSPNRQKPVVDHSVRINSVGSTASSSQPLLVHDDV
Sequence of PTK5(h) (human) (P42685 whole entry): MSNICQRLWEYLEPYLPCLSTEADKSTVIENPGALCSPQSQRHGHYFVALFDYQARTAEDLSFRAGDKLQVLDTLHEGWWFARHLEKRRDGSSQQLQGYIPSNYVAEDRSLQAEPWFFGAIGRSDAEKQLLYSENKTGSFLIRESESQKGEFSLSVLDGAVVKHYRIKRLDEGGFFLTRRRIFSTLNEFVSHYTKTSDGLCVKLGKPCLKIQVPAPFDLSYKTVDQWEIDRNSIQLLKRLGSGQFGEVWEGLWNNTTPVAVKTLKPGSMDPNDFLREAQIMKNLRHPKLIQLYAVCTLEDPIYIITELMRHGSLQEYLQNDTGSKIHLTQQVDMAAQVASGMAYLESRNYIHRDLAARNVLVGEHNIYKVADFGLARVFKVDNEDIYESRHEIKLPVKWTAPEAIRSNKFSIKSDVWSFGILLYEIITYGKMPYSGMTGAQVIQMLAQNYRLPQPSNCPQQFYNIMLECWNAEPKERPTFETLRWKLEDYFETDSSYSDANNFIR
Sequence of ErbB4(h) (human) (Q15303 706-991 limits assumed): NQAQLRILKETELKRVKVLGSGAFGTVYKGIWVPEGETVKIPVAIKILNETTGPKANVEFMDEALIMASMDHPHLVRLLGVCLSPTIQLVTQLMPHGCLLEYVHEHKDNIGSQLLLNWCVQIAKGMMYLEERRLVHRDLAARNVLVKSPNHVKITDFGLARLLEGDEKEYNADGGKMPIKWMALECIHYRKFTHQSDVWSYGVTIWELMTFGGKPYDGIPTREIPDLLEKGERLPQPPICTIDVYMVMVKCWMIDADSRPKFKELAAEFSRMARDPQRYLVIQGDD

MMI-0300 (peptide)
% activity at 100 µM [1]: 53% | % activity at 100 µM [2]: 132% | % activity at 100 µM [3]: 155% | % activity at 100 µM [4]: 64% | % activity at 100 µM [5]: 40% | % activity at 100 µM [6]: 24% | % activity at 100 µM [7]: 71% | % activity at 100 µM [8]: 84% | % activity at 100 µM [9]: 61% | % activity at 100 µM [10]: 86% | % activity at 100 µM [11]: 48% | % activity at 100 µM [12]: 35% | % activity at 100 µM [13]: 122% | % activity at 100 µM [14]: 93% | % activity at 100 µM [15]: 74% | % activity at 100 µM [16]: 45% | % activity at 100 µM [17]: 76% | % activity at 100 µM [18]: 77% | % activity at 100 µM [19]: 19% | % activity at 100 µM [20]: 96% | % activity at 100 µM [21]: 82% | % activity at 100 µM [22]: 96% | % activity at 100 µM [23]: 56%

MMI-0400 (peptide)
% activity at 100 µM [1]: 43% | % activity at 100 µM [2]: 129% | % activity at 100 µM [3]: 195% | % activity at 100 µM [4]: 54% | % activity at 100 µM [5]: 0% | % activity at 100 µM [6]: 9% | % activity at 100 µM [7]: 87% | % activity at 100 µM [8]: 36% | % activity at 100 µM [9]: 76% | % activity at 100 µM [10]: 85% | % activity at 100 µM [11]: 36% | % activity at 100 µM [12]: 33% | % activity at 100 µM [13]: 131% | % activity at 100 µM [14]: 146% | % activity at 100 µM [15]: 24% | % activity at 100 µM [16]: 52% | % activity at 100 µM [17]: 71% | % activity at 100 µM [18]: 75% | % activity at 100 µM [19]: 16% | % activity at 100 µM [20]: 85% | % activity at 100 µM [21]: 85% | % activity at 100 µM [22]: 91% | % activity at 100 µM [23]: 52%

MMI-0500 (peptide)
% activity at 100 µM [1]: 45% | % activity at 100 µM [2]: 96% | % activity at 100 µM [3]: 127% | % activity at 100 µM [4]: 8% | % activity at 100 µM [5]: 2% | % activity at 100 µM [6]: 5% | % activity at 100 µM [7]: 35% | % activity at 100 µM [8]: 73% | % activity at 100 µM [9]: 57% | % activity at 100 µM [10]: 23% | % activity at 100 µM [11]: 25% | % activity at 100 µM [12]: 3% | % activity at 100 µM [13]: 124% | % activity at 100 µM [14]: 337% | % activity at 100 µM [15]: 10% | % activity at 100 µM [16]: 16% | % activity at 100 µM [17]: 23% | % activity at 100 µM [18]: 22% | % activity at 100 µM [19]: 12% | % activity at 100 µM [20]: 95% | % activity at 100 µM [21]: 49% | % activity at 100 µM [22]: 48% | % activity at 100 µM [23]: 14%
